Laboratory results from patent US20240270846A1.

Target: recombinant human CD3 (human) (UniProt P07766)
Assay: SPR (Biacore T200, 37 degrees C), antibody captured by anti-human Fc, antigen as analyte, 1:1 model

Chain of recombinant human CD3 (human) (P07766 23-126): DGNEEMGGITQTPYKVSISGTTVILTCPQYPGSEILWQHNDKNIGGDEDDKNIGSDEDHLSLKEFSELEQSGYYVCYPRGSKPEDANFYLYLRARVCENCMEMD

B1: GPC3/CtrlxCD3 trispecific antibody (protein, from a related filing, part only)
VH 1: QVQLVESGGGLVQPGRSLRLSCAASGFTFSNAWMHWVRQAPGKGLEWVAQIKDRANSYNTYYAESVKGRFTISRDDSKNSIYLQMNSLKTEDTAVYYCRYVHYTTYAGSSFSYGVDAWGQGTTVTVSS
VL 1: DIVMTQSPLSLPVTPGEPASISCRSSQPLVHSNRNTYLHWYQQKPGQAPRLLIYKVSNRFSGVPDRFSGSGSGTDFTLKISRVEAEDVGVYYCGQGTQVPYTFGQGTKLEIK
VH 2: QVQLVQSGAEVKKPGASVTVSCKASGYTFTDYEMHWIRQPPGEGLEWIGAIDGPTPDTAYSEKFKGRVTLTADKSTSTAYMELSSLTSEDTAVYYCTRFYSYTYWGQGTLVTVSS
VL 2: DIVMTQSPLSLPVTPGEPASISCRSSQPLVHSNRNTYLHWYQQKPGQAPRLLIYKVSNRFSGVPDRFSGSGSGTDFTLKISRVEAEDVGVYYCGQGTQVPYTFGQGTKLEIK
modifications: left off: another chain or arm of the molecule; a dimerising Fc or GST
B1 was tested, and the Kd was 17.8 nM, the koff was 0.00151 s⁻¹ and the kon was 85000 M⁻¹ s⁻¹.

B2: Ctrl/CtrlxCD3 trispecific antibody (protein, part only; not given: Control arm variable domains, constant regions, part only)
VH: QVQLVESGGGLVQPGRSLRLSCAASGFTFSNAWMHWVRQAPGKGLEWVAQIKDRANSYNTYYAESVKGRFTISRDDSKNSIYLQMNSLKTEDTAVYYCRYVHYTTYAGSSFSYGVDAWGQGTTVTVSS
VL: DIVMTQSPLSLPVTPGEPASISCRSSQPLVHSNRNTYLHWYQQKPGQAPRLLIYKVSNRFSGVPDRFSGSGSGTDFTLKISRVEAEDVGVYYCGQGTQVPYTFGQGTKLEIK
B2 gave a Kd of 17.5 nM, a koff of 0.00147 s⁻¹ and a kon of 83700 M⁻¹ s⁻¹.
